Measurements as given in PMC12827253 (2025).

Experiments:
[1] = biological target: T1, human recombinant RIPK3 (human, UniProt Q9Y572 1-518); assay: BLI; fit at 6 nM GADD45β
[2] = biological target: T1, human recombinant RIPK3; assay: BLI; fit at 3 nM GADD45β
[3] = biological target: T1, human recombinant RIPK3; assay: BLI; average
[4] = biological target: T1, human recombinant RIPK3; assay: BLI; fit at 100 nM GADD45β
[5] = biological target: T1, human recombinant RIPK3; assay: BLI; fit at 25 nM GADD45β
[6] = biological target: T1, human recombinant RIPK3; assay: BLI; fit at 50 nM GADD45β
[7] = biological target: T1, human recombinant RIPK3; assay: BLI; fit at 12 nM GADD45β

T1 sequence (Q9Y572 whole entry): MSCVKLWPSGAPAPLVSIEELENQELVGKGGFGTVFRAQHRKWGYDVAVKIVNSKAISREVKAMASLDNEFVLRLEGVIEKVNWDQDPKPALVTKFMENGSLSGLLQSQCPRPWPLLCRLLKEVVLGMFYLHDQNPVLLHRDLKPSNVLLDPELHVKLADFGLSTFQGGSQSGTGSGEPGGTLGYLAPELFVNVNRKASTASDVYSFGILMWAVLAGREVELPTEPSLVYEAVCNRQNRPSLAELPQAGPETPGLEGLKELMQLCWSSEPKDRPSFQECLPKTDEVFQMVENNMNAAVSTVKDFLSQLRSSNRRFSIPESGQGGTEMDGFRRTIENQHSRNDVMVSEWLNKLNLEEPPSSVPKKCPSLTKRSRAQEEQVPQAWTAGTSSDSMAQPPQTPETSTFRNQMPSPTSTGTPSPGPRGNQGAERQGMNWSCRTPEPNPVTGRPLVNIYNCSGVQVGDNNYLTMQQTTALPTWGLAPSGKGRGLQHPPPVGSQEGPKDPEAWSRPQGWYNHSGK

B1: recombinant human GADD45β (natural protein)
chain: MTLEELVACDNAAQKMQTVTAAVEELLVAAQRQDRLTVGVYESAKLMNVDPDSVVLCLLAIDEEEEDDIALQIHFTLIQSFCCDNDINIVRVSGMQRLAQLLGEPAETQGTTEARDLHCLLVTNPHTDAWKSHGLVEVASYCEESRGNNQWVPYISLQER
Kd [1]: 0.61 nM
Kd [2]: 0.111 nM
koff [3]: 0.000546 s⁻¹
Kd [4]: 3.49 nM
Kd [5]: 1.96 nM
Kd [6]: 2.85 nM
Kd [7]: 1.36 nM
